Test results: patent US20090098142A1 (published 2009)

Target: T1, cynomolgus monkey IL-13 (NHP IL-13) (cynomolgus monkey, UniProt Q5I6E4 21-132 (Macaca thibetana entry))
T1 construct: Also used here for the IL-13 found in cynomolgus monkey serum; also called non-human primate IL-13; cynomolgus IL-13
T1 chain: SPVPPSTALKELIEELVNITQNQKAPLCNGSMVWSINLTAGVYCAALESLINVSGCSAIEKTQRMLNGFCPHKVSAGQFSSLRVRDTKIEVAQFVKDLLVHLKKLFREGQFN
Test: direct NHP IL-13 binding ELISA
Text: The humanized MJ 2-7 V3 and V4 were produced in COS cells by combining hMJ 2-7 VH V1 with hMJ 2-7 VL V3 and V4. The antigen binding properties of the antibodies were examined by direct NHP IL-13 binding ELISA.

binding result: no binding
B1: humanized MJ 2-7 V3 (hMJ 2-7 VH V1 with hMJ 2-7 VL V3) (antibody, V domains shown)
VH: QVQLVQSGAEVKKPGASVKVSCKASGFNIKDTYIHWVRQAPGQRLEWMGRIDPANDNIKYDPKFQGRVTITRDTSASTAYMELSSLRSEDTAVYYCARSEENWYDFFDYWGQGTLVTVSS
VL: DVVMTQSPLSLPVTLGQPASISCRSSQSLVYSDGNTYLNWFQQRPGQSPRRLIYKVSNRFSGVPDRFSGSGSGTDFTLKISRVEAEDVGVYYCFQGSHIPYTFGGGTKVEIK
notes: Produced in COS cells; VL V3: DPK18 with human germline CDR1 and CDR2 and the CDR3 of mouse MJ2-7; also called hMJ2-7 V3; Version 3
